Laboratory results reported in patent US7601489B2, “Manganese ion regulation of reverse transcriptase activity and methods of modulating same” (The Johns Hopkins University, priority 2002, dated 2009).

B1: D211N Ty1 RT (Saccharomyces cerevisiae S288C; D1428N) (protein)
chain: AVKAVKSIKPIRTTLRYDEAITYNKDIKEKEKYIEAYHKEVNQLLKMKTWDTDEYYDRKEIDPKRVINSMFIFNKKRDGTHKARFVARGDIQHPDTYDTGMQSNTVHHYALMTSLSLALDNNYYITQLDISSAYLYADIKEELYIRPPPHLGMNDKLIRLKKSHYGLKQSGANWYETIKSYLIKQCGMEEVRGWSCVFKNSQVTICLFVDNMILFSKDLNANKKIITTLKKQYDTKIINLGESDNEIQYDILGLEIKYQRGKYMKLGMENSLTEKIPKLNVPLNPKGRKLSAPGQPGLYIDQDELEIDEDEYKEKVHEMQKLIGLASYVGYKFRFDLLYYINTLAQHILFPSRQVLDMTYELIQFMWDTRDKQLIWHKNKPTEPDNKLVAISDASYGNQPYYKSQIGNIFLLNGKVIGGKSTKASLTCTSTTEAEIHAISESVPLLNNLSYLIQELNKKPIIKGLLTDSRSTISIIKSTNEEKFRNRFFGTKAMRLRDEVSGNNLYVYYIETKKNIADVMTKPLPIKTFKLLTNKWIH
B2: wild-type Ty1 RT (Saccharomyces cerevisiae S288C) (protein)
chain: MESQQLSQHSHISHGSACASVTSKEVHTNQDPLDVSASKTEECEKASTKANSQQTTTPASSAVPENPHHASPQPASVPPPQNGPYPQQCMMTQNQANPSGWSFYGHPSMIPYTPYQMSPMYFPPGPQSQFPQYPSSVGTPLSTPSPESGNTFTDSSSADSDMTSTKKYVRPPPMLTSPNDFPNWVKTYIKFLQNSNLGGIIPTVNGKPVRQITDDELTFLYNTFQIFAPSQFLPTWVKDILSVDYTDIMKILSKSIEKMQSDTQEANDIVTLANLQYNGSTPADAFETKVTNIIDRLNNNGIHINNKVACQLIMRGLSGEYKFLRYTRHRHLNMTVAELFLDIHAIYEEQQGSRNSKPNYRRNLSDEKNDSRSYTNTTKPKVIARNPQKTNNSKSKTARAHNVSTSNNSPSTDNDSISKSTTEPIQLNNKHDLHLGQELTESTVNHTNHSDDELPGHLLLDSGASRTLIRSAHHIHSASSNPDINVVDAQKRNIPINAIGDLQFHFQDNTKTSIKVLHTPNIAYDLLSLNELAAVDITACFTKNVLERSDGTVLAPIVQYGDFYWVSKRYLLPSNISVPTINNVHTSESTRKYPYPFIHRMLAHANAQTIRYSLKNNTITYFNESDVDWSSAIDYQCPDCLIGKSTKHRHIKGSRLKYQNSYEPFQYLHTDIFGPVHNLPKSAPSYFISFTDETTKFRWVYPLHDRREDSILDVFTTILAFIKNQFQASVLVIQMDRGSEYTNRTLHKFLEKNGITPCYTTTADSRAHGVAERLNRTLLDDCRTQLQCSGLPNHLWFSAIEFSTIVRNSLASPKSKKSARQHAGLAGLDISTLLPFGQPVIVNDHNPNSKIHPRGIPGYALHPSRNSYGYIIYLPSLKKTVDTTNYVILQGKESRLDQFNYDALTFDEDLNRLTASYQSFIASNEIQESNDLNIESDHDFQSDIELHPEQPRNVLSKAVSPTDSTPPSTHTEDSKRVSKTNIRAPREVDPNISESNILPSKKRSSTPQISNIESTGSGGMHKLNVPLLAPMSQSNTHESSHASKSKDFRHSDSYSENETNHTNVPISSTGGTNNKTVPQISDQETEKRIIHRSPSIDASPPENNSSHNIVPIKTPTTVSEQNTEESIIADLPLPDLPPESPTEFPDPFKELPPINSHQTNSSLGGIGDSNAYTTINSKKRSLEDNETEIKVSRDTWNTKNMRSLEPPRSKKRIHLIAAVKAVKSIKPIRTTLRYDEAITYNKDIKEKEKYIEAYHKEVNQLLKMKTWDTDEYYDRKEIDPKRVINSMFIFNKKRDGTHKARFVARGDIQHPDTYDTGMQSNTVHHYALMTSLSLALDNNYYITQLDISSAYLYADIKEELYIRPPPHLGMNDKLIRLKKSHYGLKQSGANWYETIKSYLIKQCGMEEVRGWSCVFKNSQVTICLFVDDMILFSKDLNANKKIITTLKKQYDTKIINLGESDNEIQYDILGLEIKYQRGKYMKLGMENSLTEKIPKLNVPLNPKGRKLSAPGQPGLYIDQDELEIDEDEYKEKVHEMQKLIGLASYVGYKFRFDLLYYINTLAQHILFPSRQVLDMTYELIQFMWDTRDKQLIWHKNKPTEPDNKLVAISDASYGNQPYYKSQIGNIFLLNGKVIGGKSTKASLTCTSTTEAEIHAISESVPLLNNLSYLIQELNKKPIIKGLLTDSRSTISIIKSTNEEKFRNRFFGTKAMRLRDEVSGNNLYVYYIETKKNIADVMTKPLPIKTFKLLTNKWIH

Substrate: [Mg+2]
Assay: purified protein, by the assay type
Details: fit to Hill equation

Row | Protein | kcat (other: D211N Ty1 RT) [s⁻¹] | kcat (other: Wt. Ty1 RT) [s⁻¹]
1 | B1 | 0.000444 ± 7.78e-05 | –
2 | B2 | – | 0.000447 ± 8.89e-05
